Consider 30 sequences from the supplement of paper PMC9170038.

This data set concerns MS2 coat protein. As to the kind of experiment: apparent KD of MS2 coat protein; designed switch direction (-1 OFF switch, 1 ON switch): -1; higher = weaker reporter binding. A digest of the protocol: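 RNA switches sharing common flanks were transcribed by stalled E. coli RNA polymerase on Illumina chips. A doubling series of SNAP-549-labelled MS2 coat protein, from 0.7 or 1.5 nM to 3 µM, was applied in Tris-HCl pH 7.5 buffer with KCl, MgCl2, BSA, DTT, tRNA and Tween-20. Each step lasted 0.8–1.5 h at the bottom of the series and 10–20 min at the top. Normalised cluster fluorescence was curve-fitted, giving apparent KD as the per-design median over clusters.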

The mark [1] stands for this setting: input ligand: microRNA oligo, concentration not stated.
[2] abbreviates: Eterna round: R95, input ligand: microRNA oligo, concentration not stated.
The mark [3] stands for this setting: Eterna round: R95, input ligand: FMN 200 uM.
Where [4] appears, read: Eterna round: R95, input ligand: none.

For the sequence “GGAGGAAGAGAGGAUAUGCGCGCAAGGAGCUUAGCAGAAGGUUCAACAUGAGGAUCACCCAUGUAUGAUCCUCA [AK-MS2ROC-r4-exclusion6-5] (Eterna round: R97, puzzle: Exclusion 6)”, the “apparent KD of MS2 coat protein” value by setting is: (input ligand: FMN 200 uM) 341 nM; (input ligand: none) 318 nM.
For “GGAUAAAAGUGAGGAUAUGAGGAGAGAGAGAGAUCAGAAGGCACACAUGAGGAUCACCCAUGUGAGUUCUCGAUAAGAAACACG [Prohibition 55 - Jieux - Exclusion NG 1] (Eterna round: R96, puzzle: Exclusion NG 1)”, the “apparent KD of MS2 coat protein” value reads like this: (input ligand: FMN 200 uM) 14.3 nM; under setting [1], 13.2 nM; (input ligand: none) 15.9 nM.
On to “GGAUCACGAGGAUAUCGAUUUUAGUACAUGAGGAUCACCCAUGUUGUCCAGGUCUCGAUUCGAGAAGGCGUGAUUC [LRO-Ex5-05] (puzzle: Exclusion 5)”, for which, under setting [2], the “apparent KD of MS2 coat protein” value was found to be 34.5 nM.
“GGAUCGAAUGUGAGGAUAUGCUGGUCCUUGGAUCAGCAGAAGGCACAUGAGGAUCACCCAUGUGGUUCCGAUCC (Eterna round: R97, puzzle: Brourd's mod of Exclusion 4)”: the “apparent KD of MS2 coat protein” value worked out at 161 nM (input ligand: FMN 200 uM) and 876 nM (input ligand: none).
The corresponding values for “GGAUCGAGUGUGAGGAUAUACCUAUGGAAACAUAGGUAGAAGGCACAUGAGGAUCACCCAUGUUCCAACGGUCC [Mat - Exclusion 4 - Eli Mod - D11] (Eterna round: R97, puzzle: Brourd's mod of Exclusion 4)” are 715 nM and 90.6 nM.
Regarding “GGAUCGAGUGUGAGGAUAUGCAGGUCCUUGGAUCUGCAGAAGGCACAUGAGGAUCACCCAUGUGAUCAAGAUCC [Mat - Exclusion 4 - Eli Mod - D47] (Eterna round: R97, puzzle: Brourd's mod of Exclusion 4)”, the “apparent KD of MS2 coat protein” value runs as follows: (input ligand: FMN 200 uM) 36.6 nM; (input ligand: none) 777 nM.
The corresponding values for “GGAUCGAGUGUGAGGAUAUGCUGGUCCUUGGAUCAGCAGAAGGCACAUGAGGAUCACCCAUGUGAUACCGAUCC [Eli bmx4 4.67] (Eterna round: R97, puzzle: Brourd's mod of Exclusion 4)” are 736 nM and 71 nM.
Take “GGAUCGUAUGUCAGGAUAUACCACUGGAUACAGUGGUAGAAGGGACAUGAGGAUCACCCAUGUCUUAUCGAUCC [Fiskers BMX 4 - 52] (puzzle: Brourd's mod of Exclusion 4)”: the “apparent KD of MS2 coat protein” value under setting [2] was determined as 14.3 nM.
Regarding “GGCACACAUGAGGAUCACCCAUGUGAGGAUAUGUUAGUUUCGGCCAAAGCCGAAAUUAACAGAAGGCACAUGCC [JR_Exclusion1_Sub021] (puzzle: Exclusion 1)”, the “apparent KD of MS2 coat protein” value under setting [2] amounted to 13.3 nM.
Same read-out and setting: for “GGCAGCUCAGGAUAUAGUUAAAACGACAUGAGGAUCACCCAUGUGACUGAUAUGCGGCGCCUAGAAGGGAGGUGCC [Xeusisso] (puzzle: Exclusion 5)” the value was 14.6 nM.
Consider “GGCAUCGGAGGAUAUACUUAUGGUGAUGCCCGAAGCUUUCUACUUGAGGAUCACCCAAGUAGAAGGCCGAUGCC [jl-ex2.4.79 ViennaUCT mod] (Eterna round: R97, puzzle: Exclusion 2)”, for which the “apparent KD of MS2 coat protein” value runs as follows: (input ligand: FMN 200 uM) 11.2 nM; (input ligand: none) 12.7 nM.
The corresponding values for “GGCAUGUAAGGAUAUGCCACGCAGUCCUUUGGGCUGCGUAAGCAGAAGGUACAUGAGGAUCACCCAUGUGAUAA [jl-ex4-4.56 ViennaUCT mod] (Eterna round: R97, puzzle: Exclusion 4)” are 865 nM and 591 nM.
For “GGCCCGGGAGGAUAUACAUGAGGAUCACCCAUGUUGAGCUUGAGGAUCUUCGAGUUCGGUAGAAGGCCCGGGCC [-35.1, -32.9 kcal, 22% A, 1, 0] (Eterna round: R97, puzzle: Exclusion 3)”, the “apparent KD of MS2 coat protein” value by setting is: (input ligand: FMN 200 uM) 201 nM; (input ligand: none) 27.2 nM.
For the sequence “GGCCCUAGGGUCAGAUGCACAAGCUUUUUGCUCGUUUUAACAUGAGGAUCACCCAUGUCUAGUGGAUCUGAUCGGGU [Indiso] (puzzle: Sensor v3, turn-off variant 2)”, the “apparent KD of MS2 coat protein” value under setting [3] was determined as 18.2 nM, the “apparent KD of MS2 coat protein” value under setting [2] was determined as 48.7 nM and the “apparent KD of MS2 coat protein” value under setting [4] came to 17.4 nM.
Consider “GGCCGUAAUAAGGAUAUCACUAGCGAUAGCUAGUGAGAAGGUAUUACAUGAGGAUCACCCAUGUGAUCAGGCCA [E6/3-B3] (Eterna round: R97, puzzle: Exclusion 6)”, for which the “apparent KD of MS2 coat protein” value was found to be 1180 nM (input ligand: FMN 200 uM) and 176 nM (input ligand: none).
Regarding “GGCGACCUAGGAUAUACAUGAGGAUCACCCAUGUUUAUCUAAUAGAUGAAGACGGGUUGUAGAAGGAGGAAAAU [Geriin] (puzzle: Exclusion 3)”, the “apparent KD of MS2 coat protein” value under setting [2] was 13.1 nM.
Consider “GGGAAGGGAGGAUAUGAGGGAGAGAACAUGAGGAUCACCCAUGUGAGACCUCAGGAUCGAUCAGAAGGCCCGAUCC [AK-MS2ROC-r4-exclusion5-14] (Eterna round: R97, puzzle: Exclusion 5)”, for which the “apparent KD of MS2 coat protein” value (input ligand: FMN 200 uM) was 677 nM and the “apparent KD of MS2 coat protein” value (input ligand: none) amounted to 383 nM.
Turning to “GGGACCCUUGUAGGAUAUAGAACCGCAGGAGGUCUAGAAGGGCACUGGUCGCCGUGGACAUGAGGAUCACCCAUGUGUUUGCCC [Eternabot solution 36] (Eterna round: R96, puzzle: Exclusion NG 1)”, the “apparent KD of MS2 coat protein” value came out at 55.2 nM (input ligand: FMN 200 uM), 40.2 nM under setting [1] and 52.4 nM (input ligand: none).
The corresponding values for “GGGAGGGAUGCAGGAUAUGCGAGGGAGGGAGGAGUAGAAGGGCAUGAGGAUCACCCAUGUGACAUGAGGAUCACCCAUGUGGGA [Success - 29% A] (Eterna round: R96, puzzle: Exclusion NG 1)” are 78 nM, 80.2 nM and 82 nM.
“GGGCCACAUGAGGAUCACCCAUGUGAGGAUAUCAUGCUUCGUAGUAAACUACGAAGUGUGAGAAGGCACAAUGG [Omei Ex1 C9] (Eterna round: R97, puzzle: Exclusion 1)”: the “apparent KD of MS2 coat protein” value came to 444 nM (input ligand: FMN 200 uM) and 143 nM (input ligand: none).
Turning to “GGGCCACAUGAGGAUCACCCAUGUUAGGAUAUUUGUUCGGUGCUAUGAAUUCAAGGCUAGAGAAGGAACAGGGA [Eternabot (L1) Solution 46] (Eterna round: R97, puzzle: Exclusion 1)”, the “apparent KD of MS2 coat protein” value reads like this: (input ligand: FMN 200 uM) 22.4 nM; (input ligand: none) 23 nM.
As to “GGGCGGCGGACCGUGGCUUUUUGCUCGUCUUAUGCUUCGACAUGAGGAUCACCCAUGUGGUGGUGGUCCGUUGUGGG [Grok-var2-13 mod JAL] (puzzle: Sensor v3, turn-off variant 2)”, the “apparent KD of MS2 coat protein” value reads like this: under setting [3], 18.4 nM; under setting [2], 15.5 nM; under setting [4], 20.8 nM.
Turning to “GGGCGUUAAGGAUAUGAUUGAAGGAACAUGAGGAUCACCCAUGUUCGGUGCCUAAUGUUCUCAGAAGGUGAUAGCU [Eternabot (L1) Solution 50] (Eterna round: R97, puzzle: Exclusion 5)”, the “apparent KD of MS2 coat protein” value runs as follows: (input ligand: FMN 200 uM) 186 nM; (input ligand: none) 175 nM.
For the sequence “GGGCUAGAAGGAGGAUAUUGAAGAUCCUCACGACAUGAGGAUCACCCAUGUGGUUUAGCAAGGGCCAAGAAGGCCUAUAGCCCA [Zasoan] (Eterna round: R96, puzzle: Exclusion NG 2)”, the “apparent KD of MS2 coat protein” value is, setting by setting: (input ligand: FMN 200 uM) 111 nM; under setting [1], 52.1 nM; (input ligand: none) 77.3 nM.
In the case of “GGGCUCGGUCUUCCGGCUGGGUCCACAUGAGGAUCACCCAUGUAGGAUAUCCCGGCUGCCGGCCGGGAGAAGGGCGUGUGUUUC [-39.8, -36.9 kcal, 14% A] (Eterna round: R96, puzzle: Exclusion NG 3)”, the “apparent KD of MS2 coat protein” value (input ligand: FMN 200 uM) came to 22.6 nM, the “apparent KD of MS2 coat protein” value under setting [1] was 13.3 nM and the “apparent KD of MS2 coat protein” value (input ligand: none) was 21.5 nM.
For “GGGUGACAGUUAGGAUAUCUUAGCACGCCGUAGAGAGAAGGGACAUGAGGAUCACCCAUGUUGUAGUGCCUCCAGCACUGCUAG [Esrasoce] (Eterna round: R96, puzzle: Exclusion NG 1)”, the “apparent KD of MS2 coat protein” value runs as follows: (input ligand: FMN 200 uM) 105 nM; under setting [1], 34 nM; (input ligand: none) 66.4 nM.
In the case of “GGUAAGUGUGACUUGGGUGACAUGAGGAUCACCCAUGUCACAAGCUUGUUGCUCGCCUUGUAAUUAACCCAUGUCAC [LRO Sensor-off var1-28 mod of Stov1-13-A1 by Brourd] (Eterna round: R97, puzzle: Sensor, turn-off variant 1)”, the “apparent KD of MS2 coat protein” value by setting is: (input ligand: FMN 200 uM) 17.3 nM; (input ligand: none) 18.6 nM.
Consider “GGUACUAACAGCUGACUGUUAGUACUGUAGGUUUGUGUUACAUGAGGAUCACCCAUGUCCUCAUAAGCUCGUCUUGU [JL-sv3-2.23 mat747 mod] (puzzle: Sensor v3, turn-off variant 2)”, for which the “apparent KD of MS2 coat protein” value is, setting by setting: under setting [3], 382 nM; under setting [2], 252 nM; under setting [4], 445 nM.
The corresponding values for “GGUACUAACAGCUGACUGUUAGUACUGUAGGUUUGUGUUACAUGAGGAUCACCCAUGUCCUCAUAGGCUCGUCUUGU [JL-sv3-2.24 mat747 mod] (puzzle: Sensor v3, turn-off variant 2)” are 281 nM, 91.5 nM and 739 nM.
The corresponding values for “GGUACUAUCACCUGAGUGGUAGUGCUAUAAGCUUGUGAUACAUGAGGAUCACCCAUGUCCUCAUUUGCUCGUCUUAU [JL-sv3-2.29 JL mod] (puzzle: Sensor v3, turn-off variant 2)” are 602 nM, 610 nM and 824 nM.
